Data taken from patent US20240352134A1 (published 2024).

What was measured:
rat CCR8 = molecular target: T1, rat CCR8 (rat, UniProt D4ADE0 1-353); experiment: FACS binding, rat CCR8-293T cells
T1 chain: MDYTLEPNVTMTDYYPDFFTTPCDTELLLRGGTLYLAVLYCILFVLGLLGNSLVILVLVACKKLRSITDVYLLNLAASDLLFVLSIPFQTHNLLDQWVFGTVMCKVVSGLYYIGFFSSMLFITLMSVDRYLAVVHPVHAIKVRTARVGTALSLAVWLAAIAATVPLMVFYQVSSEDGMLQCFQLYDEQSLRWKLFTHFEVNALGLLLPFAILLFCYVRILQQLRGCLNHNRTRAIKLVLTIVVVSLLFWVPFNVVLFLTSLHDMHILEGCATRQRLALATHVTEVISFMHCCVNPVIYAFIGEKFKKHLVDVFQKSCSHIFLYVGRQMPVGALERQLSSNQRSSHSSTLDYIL

Dog CCR8 = Dog CCR8 (dog); experiment: FACS binding, dog CCR8-293T cells
cynomolgus CCR8 = molecular target: T2, cynomolgus CCR8 (cynomolgus, UniProt G7NYJ2 1-355); experiment: FACS binding, cyno CCR8-293T cells
T2 chain: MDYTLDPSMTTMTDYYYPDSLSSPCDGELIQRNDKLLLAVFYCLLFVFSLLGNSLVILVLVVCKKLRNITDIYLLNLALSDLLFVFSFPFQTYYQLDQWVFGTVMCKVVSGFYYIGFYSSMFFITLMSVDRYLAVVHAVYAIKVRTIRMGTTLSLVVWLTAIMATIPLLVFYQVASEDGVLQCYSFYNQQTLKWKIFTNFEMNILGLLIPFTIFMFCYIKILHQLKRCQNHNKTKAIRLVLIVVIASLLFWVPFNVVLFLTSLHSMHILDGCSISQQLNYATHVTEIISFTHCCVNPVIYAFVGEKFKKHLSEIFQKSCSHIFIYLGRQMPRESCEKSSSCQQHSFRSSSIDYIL

mouse CCR8 = molecular target: T3, mouse CCR8 (mouse, UniProt P56484 1-353); experiment: FACS binding, mouse CCR8-CHOK1 cells
T3 chain: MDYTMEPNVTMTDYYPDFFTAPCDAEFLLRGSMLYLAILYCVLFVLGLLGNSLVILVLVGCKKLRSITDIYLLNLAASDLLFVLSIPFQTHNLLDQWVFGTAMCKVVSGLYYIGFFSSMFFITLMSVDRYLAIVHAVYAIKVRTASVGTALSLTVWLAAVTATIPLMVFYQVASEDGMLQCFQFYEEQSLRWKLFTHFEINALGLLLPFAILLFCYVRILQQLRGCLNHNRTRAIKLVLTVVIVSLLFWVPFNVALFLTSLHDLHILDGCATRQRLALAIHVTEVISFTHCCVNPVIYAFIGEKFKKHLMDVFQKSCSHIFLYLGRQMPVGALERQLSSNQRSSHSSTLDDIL

EC50 (rat CCR8): 3.2 nM | EC50 (Dog CCR8): 2 nM | EC50 (cynomolgus CCR8): 23.1 nM | EC50 (mouse CCR8): 0.79 nM
B1: 3F11hz4 (antibody, V domains shown)
VH: EVQLVESGGGLVQPGGSLKLSCAASGFSFNTYAMNWVRQASGKGLEWVGRIRSKSNYYATYYAASVKGRFTISRDDSKSTLYLQMNSLKTEDTAVYYCVRGRELGDYYAMDYWGQGTLVTVSS
VL: DIVMTQSPLSLPVTPGEPASISCRSSKSLLHSNGNTYLYWFLQKPGQSPQLLIYRMSNLASGVPDRFSGSGSGTDFTLKISRVEAEDVGVYYCMQHLEYPFTFGQGTKLEIK
